Measurements as given in US6465618B1, “Mitogen activated protein kinase (MAPK) kinase” (Asahi Kasei Kabushikiki Kaisha, priority 1997, dated 2002).
Changes are numbered by the printed parent chain.

T1: SAPK3 (Mus musculus, UniProt O08911)
T1 construct: His (N); made in house; host or cells: E. coli
T1 sequence (O08911 1-367): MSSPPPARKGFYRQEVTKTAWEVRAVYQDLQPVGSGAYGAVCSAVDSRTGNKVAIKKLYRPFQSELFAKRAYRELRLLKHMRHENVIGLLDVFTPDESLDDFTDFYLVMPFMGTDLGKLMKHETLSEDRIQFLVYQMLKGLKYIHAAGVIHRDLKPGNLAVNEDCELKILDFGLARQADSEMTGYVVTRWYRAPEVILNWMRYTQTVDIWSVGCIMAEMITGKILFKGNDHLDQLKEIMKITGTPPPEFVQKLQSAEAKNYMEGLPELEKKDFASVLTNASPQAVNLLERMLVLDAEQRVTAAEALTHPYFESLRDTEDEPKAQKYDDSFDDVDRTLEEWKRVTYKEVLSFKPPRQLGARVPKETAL

B1: mouse MKK7: novel MAPK kinase derived from mouse brain, amino acid sequence SEQ ID NO: 4 (protein)
chain: MAASSLEQKLSRLEAKLKQENREARRRIDLNLDISPQRPRPIIVITLSPAPAPSQRAALQLPLANDGGSRSPSSESSPQHPTPPTRPRHMLGLPSTLFTPRSMESIEIDQKLQEIMKQTGYLTIGGQRYQAEINDLENLGEMGSGTCGQVWKMRFRKTGHIIAVKQMRRSGNKEENKRILMDLDVVLKSHDCPYIVQCFGTFITNTDVFIAMELMGTCAEKLKKRMQGPIPERILGKMTVAIVKALYYLKEKHGVIHRDVKPSNILLDERGQIKLCDFGISGRLVDSKAKTRSAGCAAYMAPERIDPPDPTKPDYDIRADVWSLGISLVELATGQFPYKNCKTDFEVLTKVLQEEPPLLPGHMGFSGDFQSFVKDCLTKDHRKRPKYNKLLEHSFIKHYEILEVDVASWFKDVMAKTESPRTSGVLSQHHLPFFSGSLEESPTSPPSPKSFPLSPAIPQAQAEWVSGR
B2: mouse SEK1: known MAPK kinase, mouse SEK1 expressed as GST-SEK1 (protein)
chain: MAAPSPSGGGGSGGGGGTPGPIGPPASGHPAVSSMQGKRKALKLNFANPPVKSTARFTLNPNTTGVQNPHIERLRTHSIESSGKLKISPEQHWDFTAEDLKDLGEIGRGAYGSVNKMVHKPSGQIMAVKRIRSTVDEKEQKQLLMDLDVVMRSSDCPYIVQFYGALFREGDCWICMELMSTSFDKFYKYVYSVLDDVIPEEILGKITLATVKALNHLKENLKIIHRDIKPSNILLDRSGNIKLCDFGISGQLVDSIAKTRDAGCRPYMAPERIDPSASRQGYDVRSDVWSLGITLYELATGRFPYPKWNSVFDQLTQVVKGDPPQLSNSEEREFSPSFINFVNLCLTKDESKRPKYKELLKHPFILMYEERTVEVACYVCKILDQMPATPSSPMYVD
modifications: left off: a dimerising Fc or GST
B3: MKK6: known MAPK kinase, human MKK6 expressed as His-MKK6 (protein)
chain: MSQSKGKKRNPGLKIPKEAFEQPQTSSTPPRDLDSKACISIGNQNFEVKADDLEPIMELGRGAYGVVEKMRHVPSGQIMAVKRIRATVNSQEQKRLLMDLDISMRTVDCPFTVTFYGALFREGDVWICMELMDTSLDKFYKQVIDKGQTIPEDILGKIAVSIVKALEHLHSKLSVIHRDVKPSNVLINALGQVKMCDFGISGYLVDSVAKTIDAGCKPYMAPERINPELNQKGYSVKSDIWSLGITMIELAILRFPYDSWGTPFQQLKQVVEEPSPQLPADKFSAEFVDFTSQCLKKNSKERPTYPELMQHPFFTLHESKGTDVASFVKLILGD
modifications: left off: small tags and cut ends
B4: MKK7KL: dominant negative form of mouse MKK7, 165th Lysine (K) substituted with leucine (L), SEQ ID NO: 10 (protein)
chain: B1 chain with K165L
B5: activated MKK7: human MKK7 (SEQ ID NO: 2) as GST fusion, activated by co-expression with MEKK1 in E. coli (protein)
chain: AASSLEQKLSRLEAKLKQENREARRRIDLNLDISPQRPRPIIVITLSPAPAPSQRAALQLPLANDGGSRSPSSESSPQHPTPPARPRHMLGLPSTLFTPRSMESIEIDQKLQEIMKQTGYLTIGGQRYQAEINDLENLGEMGSGTCGQVWKMRFRKTGHVIAVKQMRRSGNKEENKRILMDLDVVLKSHDCPYIVQCFGTFITNTDVFIAMELMGTCAEKLKKRMQGPIPERILGKMTVAIVKALYYLKEKHGVIHRDVKPSNILLDERGQIKLCDFGISGRLVDSKAKTRSAGCAAYMAPERIDPPDPTKPDYDIRADVWSLGISLVELATGQFPYKNCKTDFEVLTKVLQEEPPLLPGHMGFSGDFQSFVKDCLTKDHRKRPKYNKLLEHSFIKRYETLEVDVASWFKDVMAKTESPRTSGVLSQPHLPFFR
modifications: left off: a dimerising Fc or GST

Columns and labels:
[1] = Optimum pH and heat deactivation of MKK7; assay type: physicochemical
Protocol: In addition to MKK7, MKK6 and SEK1 were used as the MAPK kinase, and MAPK, SAPK, p38 and SAPK3 were used as the MAP kinase. A MAPK kinase gene and a MAP kinase gene were cotransfected to a cell in different combinations, and the activity of the MAP kinase in vivo was determined by measuring the amount of a substrate (for the transfected MAP kinase) phosphorylated by the cotransfected cells. […] From this experiment, it has become apparent that the optimum pH for MKK7 is in the range of from pH 7 to 8, and MKK7 is deactivated at 70° C. or higher.

SAPK = biological target: T2, SAPK (Mus musculus, UniProt Q9WTU6); assay: Activation of MAP kinase by recombinant MAPK kinase in vitro, substrate phosphorylation by autoradiography; assay type: biochemical; conditions: 0.1 μg MAPK kinase, 0.5 μg His-SAPK, 30° C. 30 minutes; substrate GST-cJun (1-79)
T2 construct: His (N); made in house; host or cells: E. coli
Protocol: (§1) 0.1 μg of a MAPK kinase (His-MKK7, GST-SEK1 and His-MKK6 were separately used) and 0.5 μg of a MAP kinase (His-MAPK, His-SAPK, His-p38 and His-SAPK3 were separately used), both prepared in item (1) above, were incubated with 10 μl of a solution containing 100 μM ATP, 20 mM MgCl2, 2 mM EGTA and 20 mM Tris-HCl (pH 7.5) at 30° C. for 30 minutes, to thereby activate the MAP kinase. Subsequently, 5 μl of a solution containing a substrate for the MAP kinase and 1 μCi of [γ-^32P] ATP (manufactured and sold by Amersham International, England) was added to the mixture, and further incubated at 20° C. for 20 minutes. As a substrate for the MAP kinase, 3 μg of myelin basic protein (MBP) was used for MAPK and SAPK3, 3 μg of GST-cJun (1-79) was used for SAPK, and 3 μg of ATF-2 was used for p38. The MBP used as the substrate was obtained by purifying Brain Acetone Powder (manufactured and sold by Sigma, USA), and ATF-2 was a kind gift of Dr. Suzanne J. Baker and Dr. Tom Curran (St. Jude Children's Research Hospital). After incubation, a sample was obtained from each incubated mixture and resolved on SDS-polyacrylamide gel electrophoresis. Then, the radioactivity of each of MBP, c-Jun and ATF-2 was detected by autoradiography.

SAPK3 = biological target: T1, SAPK3; assay: as above; assay type: biochemical; conditions: 0.1 μg MAPK kinase, 0.5 μg His-SAPK3, 30° C. 30 minutes
Protocol: as §1

p38 = biological target: T3, p38 (Mus musculus, UniProt P47811); assay: as above; assay type: biochemical; conditions: 0.1 μg MAPK kinase, 0.5 μg His-p38, 30° C. 30 minutes; substrate ATF-2
T3 construct: His (N); made in house; host or cells: E. coli
T3 sequence (P47811 whole entry): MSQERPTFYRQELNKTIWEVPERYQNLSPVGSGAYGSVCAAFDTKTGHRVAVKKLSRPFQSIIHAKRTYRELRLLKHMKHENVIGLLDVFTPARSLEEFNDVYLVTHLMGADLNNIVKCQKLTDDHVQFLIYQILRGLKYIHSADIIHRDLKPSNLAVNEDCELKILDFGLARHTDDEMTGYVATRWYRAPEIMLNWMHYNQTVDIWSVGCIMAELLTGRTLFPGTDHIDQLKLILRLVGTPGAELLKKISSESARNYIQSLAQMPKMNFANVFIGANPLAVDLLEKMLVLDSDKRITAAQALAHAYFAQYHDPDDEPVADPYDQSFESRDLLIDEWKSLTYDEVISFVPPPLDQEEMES
Protocol: as §1

SAPK/JNK = assay: Inhibition of TNF-α-induced SAPK activation by the dominant negative form of MKK7 in KB cells; conditions: KB cells cotransfected with pSRα-HA-SAPKα and pSRα-MKK7KL; TNF-α 100 ng/ml, 15 minutes; sorbitol- and anisomycin-induced activation not suppressed
Protocol: KB cells were cotransfected with the vector pSRα-HA-SAPKα (0.5 μg) and either the vector pSRα or the vector pSRα-MKK7KL (1.5 μg) using Lipofectamine (manufactured and sold under the brand of GIBCO BRL, USA). Twenty-four hours after the transfection, TNF-α (100 ng/ml), sorbitol (0.5 M) and anisomycin (100 μg/ml) were individually used to stimulate the transfected cells for 15 minutes. Next, the cell extracts of the stimulated cells were individually prepared as follows. The cells were suspended in 0.7 M NaCl solution and washed once with ice-cold HEPES-buffered saline. Subsequently, the washed cells were homogenized in a buffer containing 20 mM Tris-HCl (pH 7.5), 2 mM EGTA, 25 mM β-glycerophosphate, 2 mM DTT, 1 mM vanadate, 1 mM PMSF and 1% aprotinin, wherein the buffer was used in an amount of 300 μl relative to cells obtained per plate (diameter: 100 mm). The resultant cell homogenate was centrifuged at 1000×g for 3 minutes, followed by a further centrifugation at 400,000×g for 20 minutes, thereby obtaining a supernatant. The obtained supernatant was used as the cell extract.
Each of the cell extracts was individually immunoprecipitated with anti-HA antibody (anti-hemagglutinin antibody) (12CA5), and the kinase activity of HA-SAPK in the immunoprecipitate was determined.

JNK1 = biological target: T4, JNK1 (Homo sapiens, UniProt P45983); assay: Activity of activated MKK7 on JNK1, dot hybridization with anti-activated JNK antibody; assay type: biochemical; conditions: 0.1 μM MKK7, 0.2 μM JNK1, 0.1 mM ATP, 30° C. 2 hours
T4 construct: GST (N); made in house; host or cells: E. coli (GST-MKK7: E. coli DH5α co-transformed with a MEKK1 vector)
T4 sequence (P45983 whole entry): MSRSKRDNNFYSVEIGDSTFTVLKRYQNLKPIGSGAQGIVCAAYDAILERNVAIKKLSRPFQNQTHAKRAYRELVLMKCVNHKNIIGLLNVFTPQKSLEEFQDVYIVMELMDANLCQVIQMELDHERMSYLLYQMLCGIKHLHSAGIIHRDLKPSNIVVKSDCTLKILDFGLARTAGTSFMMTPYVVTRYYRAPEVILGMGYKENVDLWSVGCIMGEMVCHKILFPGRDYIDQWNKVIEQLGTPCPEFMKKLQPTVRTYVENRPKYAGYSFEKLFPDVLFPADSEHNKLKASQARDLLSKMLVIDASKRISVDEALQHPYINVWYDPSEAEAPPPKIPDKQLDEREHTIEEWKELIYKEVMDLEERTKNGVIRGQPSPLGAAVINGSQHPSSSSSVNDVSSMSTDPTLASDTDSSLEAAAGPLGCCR
Protocol: In order to screen an inhibitor of MKK7, a completely activated MKK7 was prepared as follows. Illustratively stated, as an activation factor for MKK7, MEKK1 which is suspected to exist in the upstream of MKK7 and activate MKK7, was used. A commercially available MEKK1 gene (manufactured and sold by Stratagene Cloning Systems, USA) was inserted into an E. coli expression vector in which the origin of replication (ori) is p15A, to thereby prepare recombinant MEKK1 vector. The whole DNA of human MKK7 was inserted into vector pGEX-4T1 (manufactured and sold by Pharmacia Biotech AB, Sweden), to thereby prepare recombinant GST-MKK7 vector. Two recombinant expression vectors prepared above were co-transformed into E. coli DH5α to thereby obtain an activated GST-MKK7, and the activated GST-MKK7 was purified from E. coli using Glutathione-Sepharose 4B column (manufactured and sold by Pharmacia Biotech AB, Sweden).
A gene encoding human JNK1 was inserted into vector pGEX-4T1, thereby preparing recombinant GST-JNK1 vector, and the prepared recombinant vector was transformed into and expressed in E. coli. GST-JNK1 was purified from the transformants using Glutathione-Sepharose 4B column (manufactured and sold by Pharmacia Biotech AB, Sweden). […]
Using the activated MKK7 and JNK1 obtained above, the activity of MKK7 was determined in the following manner. […]

Molecule | optimum pH [1] | temperature at which MKK7 is deactivated [1] | activation of SAPK (phosphorylation of c-Jun) (SAPK) | activation of SAPK3 (phosphorylation of MBP) (SAPK3) | activation of p38 (phosphorylation of ATF-2) (p38) | TNF-α-induced activation of SAPK/JNK in a cell expressing MKK7KL (SAPK/JNK) | activity of MKK7 (presence of activated JNK1) (JNK1)
B1 | 7 to 8 pH | ≥ 70 °C | specifically activated | did not activate | did not activate | – | –
B2 | – | – | activated | activated | activated | – | –
B3 | – | – | did not activate | activated | activated | – | –
B4 | – | – | – | – | – | suppressed | –
B5 | – | – | – | – | – | – | confirmed
